{
  "source": "patent US20190241648A1",
  "about": "(STATEN BIOTECHNOLOGY B V, published 2019)",
  "test_in_all_cases": "cyclic peptide substitution array",
  "key": {"ApoC3 peptide P69M": {"biological_target": "T1, ApoC3 peptide P69M (human, not fully specified; cyclic (thioether))", "T1 peptide": "DKFSEFWDLDMEV", "in_short": "(§1)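 Peptide microarrays incubated with antibody samples, then stained with goat anti-human IgG (Fc) DyLight680 and anti-HA DyLight800 control antibodies, scanned at intensity 7/7 (red/green). Secondary-only pre-stain checked background binding; framing HA peptides served as quality control; substitution effects read as changes in spot intensity.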"}, "ApoC3 peptide V71L": {"biological_target": "T2, ApoC3 peptide V71L (human, thioether (positions not given here); also: cyclic (thioether), ring places not given here)", "T2 peptide": "DKFSEFWDLDPEL", "in_short": "as §1"}, "ApoC3 peptide E70T": {"biological_target": "T3, ApoC3 peptide E70T (human, cyclic (thioether))", "T3 peptide": "DKFSEFWDLDPTV", "in_short": "as §1"}, "ApoC3 peptide K60P": {"biological_target": "T4, ApoC3 peptide K60P (human, cyclic (thioether))", "T4 peptide": "DPFSEFWDLDPEV", "in_short": "as §1"}, "ApoC3 peptide D66S": {"biological_target": "T5, ApoC3 peptide D66S (human, not fully specified; cyclic (thioether))", "T5 peptide": "DKFSEFWSLDPEV", "in_short": "as §1"}, "ApoC3 peptide E63L": {"biological_target": "T6, ApoC3 peptide E63L (human, cyclic (thioether))", "T6 peptide": "DKFSLFWDLDPEV", "in_short": "as §1"}, "ApoC3 peptide S62D": {"biological_target": "T7, ApoC3 peptide S62D (human, not fully specified; cyclic (thioether))", "T7 peptide": "DKFDEFWDLDPEV", "in_short": "as §1"}, "ApoC3 peptide V71K": {"biological_target": "T8, ApoC3 peptide V71K (human, thioether (positions not given here); also: cyclic (thioether), ring places not given here)", "T8 peptide": "DKFSEFWDLDPEK", "in_short": "as §1"}, "ApoC3 peptide P69G": {"biological_target": "T9, ApoC3 peptide P69G (human, not fully specified; cyclic (thioether))", "T9 peptide": "DKFSEFWDLDGEV", "in_short": "as §1"}, "ApoC3 peptide E63M": {"biological_target": "T10, ApoC3 peptide E63M (human, cyclic (thioether))", "T10 peptide": "DKFSMFWDLDPEV", "in_short": "as §1"}, "ApoC3 peptide D68M": {"biological_target": "T11, ApoC3 peptide D68M (human, cyclic (thioether))", "T11 peptide": "DKFSEFWDLMPEV", "in_short": "as §1"}, "ApoC3 peptide E70A": {"biological_target": "T12, ApoC3 peptide E70A (human, cyclic (thioether))", "T12 peptide": "DKFSEFWDLDPAV", "in_short": "as §1"}, "ApoC3 peptide P69R": {"biological_target": "T13, ApoC3 peptide P69R (human, not fully specified; cyclic (thioether))", "T13 peptide": "DKFSEFWDLDREV", "in_short": "as §1"}, "ApoC3 peptide F64T": {"biological_target": "T14, ApoC3 peptide F64T (human, thioether (positions not given here); not fully specified (bridges); also: cyclic (thioether), positions not given here)", "T14 peptide": "DKFSETWDLDPEV", "in_short": "as §1"}, "ApoC3 peptide W65R": {"biological_target": "T15, ApoC3 peptide W65R (human, cyclic (thioether))", "T15 peptide": "DKFSEFRDLDPEV", "in_short": "as §1"}, "ApoC3 peptide S62R": {"biological_target": "T16, ApoC3 peptide S62R (human, thioether (positions not given here); also: cyclic (thioether), ring places not given here)", "T16 peptide": "DKFREFWDLDPEV", "in_short": "as §1"}, "ApoC3 peptide F61L": {"biological_target": "T17, ApoC3 peptide F61L (human, cyclic (thioether))", "T17 peptide": "DKLSEFWDLDPEV", "in_short": "as §1"}, "ApoC3 peptide S62F": {"biological_target": "T18, ApoC3 peptide S62F (human, not fully specified; cyclic (thioether))", "T18 peptide": "DKFFEFWDLDPEV", "in_short": "as §1"}, "ApoC3 peptide D59H": {"biological_target": "T19, ApoC3 peptide D59H (human, thioether (positions not given here); not fully specified (C-terminus, bridges))", "T19 peptide": "HKFSEFWDLDPEV", "in_short": "as §1"}, "ApoC3 peptide D68V": {"biological_target": "T20, ApoC3 peptide D68V (human, not fully specified; cyclic (thioether))", "T20 peptide": "DKFSEFWDLVPEV", "in_short": "as §1"}, "ApoC3 peptide D68A": {"biological_target": "T21, ApoC3 peptide D68A (human, cyclic (thioether))", "T21 peptide": "DKFSEFWDLAPEV", "in_short": "as §1"}, "ApoC3 peptide W65T": {"biological_target": "T22, ApoC3 peptide W65T (human, cyclic (thioether))", "T22 peptide": "DKFSEFTDLDPEV", "in_short": "as §1"}, "ApoC3 peptide D59C": {"biological_target": "T23, ApoC3 peptide D59C (human, thioether (positions not given here); not fully specified (C-terminus, bridges))", "T23 peptide": "CKFSEFWDLDPEV", "in_short": "as §1"}, "ApoC3 peptide V71I": {"biological_target": "T24, ApoC3 peptide V71I (human, thioether (positions not given here); also: cyclic (thioether), ring places not given here)", "T24 peptide": "DKFSEFWDLDPEI", "in_short": "as §1"}, "ApoC3 peptide L67Q": {"biological_target": "T25, ApoC3 peptide L67Q (human, thioether (positions not given here); not fully specified (bridges); also: thioether between a C-terminal Cys side chain and a modified N-terminus, the Cys is not in the chain)", "T25 peptide": "DKFSEFWDQDPEV", "in_short": "as §1"}, "ApoC3 peptide D68C": {"biological_target": "T26, ApoC3 peptide D68C (human, cyclic (thioether))", "T26 peptide": "DKFSEFWDLCPEV", "in_short": "as §1"}, "ApoC3 peptide W65F": {"biological_target": "T27, ApoC3 peptide W65F (human, not fully specified; cyclic (thioether))", "T27 peptide": "DKFSEFFDLDPEV", "in_short": "as §1"}, "ApoC3 peptide E63V": {"biological_target": "T28, ApoC3 peptide E63V (human, cyclic (thioether))", "T28 peptide": "DKFSVFWDLDPEV", "in_short": "as §1"}, "ApoC3 peptide E63P": {"biological_target": "T29, ApoC3 peptide E63P (human, cyclic (thioether))", "T29 peptide": "DKFSPFWDLDPEV", "in_short": "as §1"}, "ApoC3 peptide D66R": {"biological_target": "T30, ApoC3 peptide D66R (human, not fully specified; cyclic (thioether))", "T30 peptide": "DKFSEFWRLDPEV", "in_short": "as §1"}, "ApoC3 peptide V71W": {"biological_target": "T31, ApoC3 peptide V71W (human, not fully specified; cyclic (thioether))", "T31 peptide": "DKFSEFWDLDPEW", "in_short": "as §1"}, "ApoC3 peptide E63T": {"biological_target": "T32, ApoC3 peptide E63T (human, cyclic (thioether))", "T32 peptide": "DKFSTFWDLDPEV", "in_short": "as §1"}},
  "note": "Ends that are not written are not given here.",
  "data": [
    {"binder": "Llama antibody 5E5 (antibody, V domains shown, detected with goat anti-human IgG (Fc); also called mAb 5E5) VH: QLQLVESGGGLVQPGGSLRLSCAASGFTFGTYSMRWVRQVPRKALEWVSSISTDGGGTAYRDSVKGRFTISRDNAKNTLYLQMNNLKPEDTAIYYCVIAGYSDWGQGTQVTVSS VL: ATMLTQSPGSLSVVPGESASISCKTSQGLVHSDGKTYFYWFLQKPGQSPQQLIYQVSNRASGVPDRFTGSGSGTDFTLKISGVKAEDAGVYYCAQGTYYPHTFGSGTRLEIK", "values": [
      {"measurement": "% of binding to wild-type peptide", "setting": "ApoC3 peptide P69M", "result": 29.3, "unit": "%"},
      {"measurement": "% of binding to wild-type peptide", "setting": "ApoC3 peptide V71L", "result": 90.6, "unit": "%"},
      {"measurement": "% of binding to wild-type peptide", "setting": "ApoC3 peptide E70T", "result": 83, "unit": "%"},
      {"measurement": "% of binding to wild-type peptide", "setting": "ApoC3 peptide K60P", "result": 205, "unit": "%"},
      {"measurement": "% of binding to wild-type peptide", "setting": "ApoC3 peptide D66S", "result": 0, "unit": "%"},
      {"measurement": "% of binding to wild-type peptide", "setting": "ApoC3 peptide E63L", "result": 10.1, "unit": "%"},
      {"measurement": "% of binding to wild-type peptide", "setting": "ApoC3 peptide S62D", "result": 0, "unit": "%"},
      {"measurement": "% of binding to wild-type peptide", "setting": "ApoC3 peptide V71K", "result": 91.1, "unit": "%"},
      {"measurement": "% of binding to wild-type peptide", "setting": "ApoC3 peptide P69G", "result": 24.6, "unit": "%"},
      {"measurement": "% of binding to wild-type peptide", "setting": "ApoC3 peptide E63M", "result": 13.1, "unit": "%"},
      {"measurement": "% of binding to wild-type peptide", "setting": "ApoC3 peptide D68M", "result": 2.82, "unit": "%"},
      {"measurement": "% of binding to wild-type peptide", "setting": "ApoC3 peptide E70A", "result": 50, "unit": "%"},
      {"measurement": "% of binding to wild-type peptide", "setting": "ApoC3 peptide P69R", "result": 20.1, "unit": "%"},
      {"measurement": "% of binding to wild-type peptide", "setting": "ApoC3 peptide F64T", "result": 467, "unit": "%"},
      {"measurement": "% of binding to wild-type peptide", "setting": "ApoC3 peptide W65R", "result": 0.02, "unit": "%"},
      {"measurement": "% of binding to wild-type peptide", "setting": "ApoC3 peptide S62R", "result": 1.45, "unit": "%"},
      {"measurement": "% of binding to wild-type peptide", "setting": "ApoC3 peptide F61L", "result": 63.4, "unit": "%"},
      {"measurement": "% of binding to wild-type peptide", "setting": "ApoC3 peptide S62F", "result": 1.25, "unit": "%"},
      {"measurement": "% of binding to wild-type peptide", "setting": "ApoC3 peptide D59H", "result": 52.8, "unit": "%"},
      {"measurement": "% of binding to wild-type peptide", "setting": "ApoC3 peptide D68V", "result": 0, "unit": "%"},
      {"measurement": "% of binding to wild-type peptide", "setting": "ApoC3 peptide D68A", "result": 1.75, "unit": "%"},
      {"measurement": "% of binding to wild-type peptide", "setting": "ApoC3 peptide W65T", "result": 0, "unit": "%"},
      {"measurement": "% of binding to wild-type peptide", "setting": "ApoC3 peptide D59C", "result": 66.2, "unit": "%"},
      {"measurement": "% of binding to wild-type peptide", "setting": "ApoC3 peptide V71I", "result": 66, "unit": "%"},
      {"measurement": "% of binding to wild-type peptide", "setting": "ApoC3 peptide L67Q", "result": 3.99, "unit": "%"},
      {"measurement": "% of binding to wild-type peptide", "setting": "ApoC3 peptide D68C", "result": 5.46, "unit": "%"},
      {"measurement": "% of binding to wild-type peptide", "setting": "ApoC3 peptide W65F", "result": 5.5, "unit": "%"},
      {"measurement": "% of binding to wild-type peptide", "setting": "ApoC3 peptide E63V", "result": 4.2, "unit": "%"},
      {"measurement": "% of binding to wild-type peptide", "setting": "ApoC3 peptide E63P", "result": 81.2, "unit": "%"},
      {"measurement": "% of binding to wild-type peptide", "setting": "ApoC3 peptide D66R", "result": 0.17, "unit": "%"},
      {"measurement": "% of binding to wild-type peptide", "setting": "ApoC3 peptide V71W", "result": 68.7, "unit": "%"},
      {"measurement": "% of binding to wild-type peptide", "setting": "ApoC3 peptide E63T", "result": 0, "unit": "%"}
    ]}
  ]
}
